From patent publication US20240010750A1 (Bayer, published 2024)
Numbering of substitutions follows the chain as printed. Like-named read-outs stand apart in the source and are kept apart here.

B1: TPP-14305 hIgG1 (antibody, V domains shown)
VH: EVQLLESGGGLVQPGGSLRLSCAASGFTFDDYAMSWVRQAPGKGLEWVSAIGTGGGTYYADSVKGRFTISRDNSKNTLYLQMNSLRAEDTAVYYCAREGYDSSGYYHLDYWGQGTLVTVSS
VL: QSVLTQPPSASGTPGQRVTISCTGSSSNIGATYDVHWYQQLPGTAPKLLIYSNNQRPSGVPDRFSGSKSGTSASLAISGLRSEDEADYYCWAWDDSLSGWVFGGGTKLTVLG
B2: TPP-14313 hIgG1 (antibody, V domains shown)
VH: B1 VH with G99Y, D109V
VL: QSVLTQPPSASGTPGQRVTISCTGSSSNIGATYDVHWYQQLPGTAPKLLIYSNNQRPSGVPDRFSGSKSGTSASLAISGLRSEDEADYYCAAWDWSLSGWVFGGGTKLTVL
notes: Human IgG1 lambda
B3: TPP-14314 hIgG1 (antibody, V domains shown)
VH: B1 VH with G99Y, D109V
VL: B2 VL with W95V
notes: Human IgG1 lambda
B4: TPP-14308 hIgG1 (antibody, V domains shown)
VH: B1 VH
VL: B1 VL with W91A, D95W
notes: starting point of the germlining
B5: TPP-17051 hIgG1 (antibody, V domains shown)
VH: B1 VH with D31S, G56S
VL: B1 VL with W91A, D95W
notes: Germline variant of TPP-14308
B6: TPP-17041 hIgG1 (antibody, V domains shown)
VH: B1 VH with D30S
VL: B1 VL with W91A, D95W
notes: Germline variant of TPP-14308

Experiments:
[1] = molecular target: T1, human alpha2-Antiplasmin (human, UniProt P08697 40-491); test: cell-based or functional assay
T1 sequence: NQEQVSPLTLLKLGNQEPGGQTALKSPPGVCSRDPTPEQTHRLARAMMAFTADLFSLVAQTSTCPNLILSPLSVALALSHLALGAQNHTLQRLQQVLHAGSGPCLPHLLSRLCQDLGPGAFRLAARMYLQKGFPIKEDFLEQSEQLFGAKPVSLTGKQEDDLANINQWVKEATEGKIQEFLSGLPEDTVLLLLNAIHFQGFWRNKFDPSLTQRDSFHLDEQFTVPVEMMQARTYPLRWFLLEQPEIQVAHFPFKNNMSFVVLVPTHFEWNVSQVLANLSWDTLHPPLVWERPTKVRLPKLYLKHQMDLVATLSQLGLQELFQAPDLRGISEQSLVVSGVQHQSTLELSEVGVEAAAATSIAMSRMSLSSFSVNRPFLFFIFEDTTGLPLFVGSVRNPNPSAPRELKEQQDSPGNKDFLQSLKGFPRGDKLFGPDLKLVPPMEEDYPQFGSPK

[2] = molecular target: human Plasmin (human, UniProt P00747 97-580; P00747 581-810, limits assumed); test: cell-based or functional assay
Sequence of human Plasmin (P00747 97-580 limits assumed, chain 1 of 2): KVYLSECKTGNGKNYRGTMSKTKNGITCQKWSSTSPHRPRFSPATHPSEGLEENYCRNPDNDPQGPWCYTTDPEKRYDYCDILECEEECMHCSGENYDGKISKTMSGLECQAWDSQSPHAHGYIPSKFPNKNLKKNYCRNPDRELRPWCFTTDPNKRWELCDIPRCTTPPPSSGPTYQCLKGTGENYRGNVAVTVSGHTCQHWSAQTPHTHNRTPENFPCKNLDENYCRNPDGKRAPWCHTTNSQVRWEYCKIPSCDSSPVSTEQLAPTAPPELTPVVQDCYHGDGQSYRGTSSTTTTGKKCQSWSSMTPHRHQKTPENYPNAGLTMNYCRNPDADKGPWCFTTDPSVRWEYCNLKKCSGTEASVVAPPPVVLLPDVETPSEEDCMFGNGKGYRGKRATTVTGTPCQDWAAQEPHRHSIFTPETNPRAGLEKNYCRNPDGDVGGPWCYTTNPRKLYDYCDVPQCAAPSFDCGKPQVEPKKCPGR
Sequence of human Plasmin (P00747 581-810 limits assumed, chain 2 of 2): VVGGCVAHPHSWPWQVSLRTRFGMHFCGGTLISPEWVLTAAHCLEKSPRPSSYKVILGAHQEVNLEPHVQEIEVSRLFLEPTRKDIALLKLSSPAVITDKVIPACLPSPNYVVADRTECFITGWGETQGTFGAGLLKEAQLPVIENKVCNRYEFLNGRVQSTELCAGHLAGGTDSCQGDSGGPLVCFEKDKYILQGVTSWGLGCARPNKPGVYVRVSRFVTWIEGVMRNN

[3] = molecular target: T1, human alpha2-Antiplasmin; test: cell-based or functional assay; remark: listed apart in the source
[4] = molecular target: T1, human alpha2-Antiplasmin; test: ELISA, coated antigen, 1st exp.
Experimental: (§1) A standard ELISA format was used for analyzing the binding affinity of Fabs of this invention to human and rabbit alpha-2-Antiplasmin, respectively. Antigens were coated to black 384 well Maxisorp microtiter plates (Nunc; catalogue number 460518), diluted to a concentration of 1 μg/ml in 1× Coating Buffer (Candor Bioscience; catalogue number 121125). Plates were incubated overnight at 4° C. After overnight incubation, plates were washed 2× with 50 μl/well using PBS+0.05% Tween 20. Following this, 50 μl/well of blocking buffer (Smart Block; Candor Bioscience; catalogue number 113500) was added and the plates were incubated for 1 hour at room temperature. Afterwards, plates were washed for 3× using […] PBS+0.05% Tween 20 buffer. Fabs of this invention were added at different concentrations in a final volume of 30 μl/well. Plates were incubated for 1 hour at room temperature. Following this incubation step, plates were washed for 3× using 50 μl/well of a PBS+0.05% Tween 20 buffer. For the detection of bound Fabs and full-length antibodies, the anti-Human Lambda Light Chains (Bound and Free)—Peroxidase antibody (Sigma; catalogue number A5175) was diluted by the factor of 1:10.000 in 10% Blocking Buffer. 30 μl/well of this diluted detection antibody was added and plates are incubated for 1 hour at room temperature. Following this incubation step, plates were washed for 3× using 50 μl/well of a PBS+0.05% Tween 20 buffer. As substrate, a mixture of 30 μl/well of 1:1000 diluted Amplex red (Invitrogen; catalogue number 12222; stock solution 10 mM in DMSO) and 1:10.000 of Hydrogen peroxide (Merck; catalogue number 107209; 30% stock solution) was added and the plates incubated for minutes in the dark.
(§2) For measurement, the Infinite f500 reader (Tecan) was used. Measurement mode: Fluorescence; Top reading; Ex 535 nm; Em 590 nm.
(§3) According to the methods described in Example 3 and Example 4, antibodies TPP-14323, TPP-14318, TPP-14314, TPP-14313, TPP-14308, TPP-14305, TPP-14303, TPP-14298, and TPP-14293 were tested for their ability to bind to and to block the activity of human alpha2-Antiplasmin in a dose-dependent manner. For each antibody, one dose response curve from two to three independent experiments performed in quadruplicate is shown as example in FIG. 7.1 to FIG. 7.18. (see Table 3.3)

[5] = molecular target: T1, human alpha2-Antiplasmin; test: ELISA, coated antigen, 2nd exp.
Experimental: as §1, §2, §3

[6] = molecular target: T1, human alpha2-Antiplasmin; test: ELISA, coated antigen, 3rd exp.
Experimental: as §1, §2, §3

[7] = molecular target: T1, human alpha2-Antiplasmin; test: cell-based or functional assay; remark: listed apart in the source
[8] = molecular target: T1, human alpha2-Antiplasmin; test: ELISA (Example 3), human alpha2-Antiplasmin coated, RFU
Experimental: as §1, with “As substrate, a mixture of 30 μl/well of 1:1000 diluted Amplex red (Invitrogen; catalogue number 12222; stock solution 10 mM in DMSO) and 1:10.000 of Hydrogen peroxide (Merck; catalogue number 107209; 30% stock solution) was added and the plates incubated for minutes in the dark.” left out
as §2
According to the method described in Example 3, these 12 antibodies were tested for ability to bind human and rabbit alpha2-Antiplasmin in a dose-dependent manner. Data generated were analyzed using the GraphPadPrism software. The binding activities of the antibodies were calculated as EC50 values. […]

[9] = molecular target: T1, human alpha2-Antiplasmin; test: SPR Biacore T200, antibody captured on protein G chip, A2AP as analyte, 25 C
Experimental: (§4) Binding assays were performed on a Biacore T200 instrument at 25° C. with a protein G sensor chip and assay buffer HBS-EP+. Antibodies were captured to ˜150 RU and analytes were used at concentrations between 1.56 and 200 nM for full kinetics. As interaction partner, alpha2-Antiplasmin from human, cynomolgus and rabbit was used. Regeneration was performed with glycine-HCl pH 1.5. Kinetic parameters were derived by fitting experimental sensorgrams to a 1:1 Langmuir binding model.

[10] = molecular target: T2, cynomolgus alpha2-Antiplasmin (cynomolgus (Macaca fascicularis), UniProt P08697 28-491 (human entry)); test: as above
T2 construct: Made in house in the same way as the rabbit protein; also called cynomolgus A2AP; Macaca fascicularis A2AP
T2 chain: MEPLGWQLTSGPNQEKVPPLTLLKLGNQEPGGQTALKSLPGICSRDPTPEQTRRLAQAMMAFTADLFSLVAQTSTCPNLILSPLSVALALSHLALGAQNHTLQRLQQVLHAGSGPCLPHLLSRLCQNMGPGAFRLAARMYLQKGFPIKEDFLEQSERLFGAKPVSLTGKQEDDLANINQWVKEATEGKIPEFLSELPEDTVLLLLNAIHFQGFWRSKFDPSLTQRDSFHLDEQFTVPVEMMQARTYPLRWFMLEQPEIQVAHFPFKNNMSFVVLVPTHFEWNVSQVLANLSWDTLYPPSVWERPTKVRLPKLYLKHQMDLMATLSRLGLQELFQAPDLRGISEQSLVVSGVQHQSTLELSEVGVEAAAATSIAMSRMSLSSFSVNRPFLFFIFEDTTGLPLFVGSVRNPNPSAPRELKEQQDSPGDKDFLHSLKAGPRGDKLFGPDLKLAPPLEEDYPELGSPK
Experimental: as §4

[11] = molecular target: T3, rabbit alpha2-Antiplasmin (rabbit (Oryctolagus cuniculus)); test: as above
T3 construct: Made in house in HEK293 cells, purified by Ni-IMAC and SEC (a His tag is implied but not described); also called rabbit A2AP; Oryctolagus cuniculus A2AP
T3 chain: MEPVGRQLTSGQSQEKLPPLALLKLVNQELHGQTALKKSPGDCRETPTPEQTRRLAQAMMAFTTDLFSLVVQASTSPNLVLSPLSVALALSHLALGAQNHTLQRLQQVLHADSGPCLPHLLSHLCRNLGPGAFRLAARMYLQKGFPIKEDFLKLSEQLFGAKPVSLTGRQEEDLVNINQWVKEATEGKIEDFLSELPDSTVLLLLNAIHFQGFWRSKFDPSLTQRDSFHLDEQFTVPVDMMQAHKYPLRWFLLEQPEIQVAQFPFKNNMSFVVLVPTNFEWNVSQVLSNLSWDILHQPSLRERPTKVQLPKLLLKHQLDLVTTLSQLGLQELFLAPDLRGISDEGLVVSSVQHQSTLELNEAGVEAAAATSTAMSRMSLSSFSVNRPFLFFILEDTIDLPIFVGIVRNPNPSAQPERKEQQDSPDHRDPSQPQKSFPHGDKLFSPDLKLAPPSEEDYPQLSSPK
Experimental: as §4

[12] = molecular target: T1, human alpha2-Antiplasmin; test: cell-based or functional assay; remark: listed apart in the source
[13] = molecular target: T1, human alpha2-Antiplasmin; test: cell-based or functional assay; remark: listed apart in the source
[14] = molecular target: T1, human alpha2-Antiplasmin; test: ELISA, coated antigen, quantified unpurified antibody, 3rd exp.
Experimental: as §1, §2

[15] = molecular target: T1, human alpha2-Antiplasmin; test: ELISA, coated antigen, quantified unpurified antibody, 2nd exp.
[16] = molecular target: T1, human alpha2-Antiplasmin; test: ELISA, coated antigen, quantified unpurified antibody, 1st exp.
[17] = molecular target: T1, human alpha2-Antiplasmin; test: cell-based or functional assay; remark: listed apart in the source
[18] = molecular target: T1, human alpha2-Antiplasmin; test: cell-based or functional assay; remark: listed apart in the source

Binder	function blocking activity [IC50 M], 1st exp. [1] [nM]	function blocking activity [IC50 M], 2nd exp. [1] [nM]	function blocking activity [IC50 M], 3rd exp. [1] [nM]	IC50 [M], inhibition of plasmin proteolytic activity [2] [M]	EC50 [4] [nM]	EC50 [5] [nM]	EC50 [6] [nM]	EC50 (read off the curve) [8] [nM]	Kd [9] [nM]	Kd [10] [nM]	Kd [11] [nM]	EC50 [15] [nM]	EC50 [16] [nM]	IC50, A2AP function blocking assay (Example 10) [17] [nM]	function blocking activity [IC50 M], 1st exp. [18] [nM]	function blocking activity [IC50 M], 2nd exp. [18] [nM]	other results
B1	64	69	66	> 2e-06	15	16	16	–	–	–	–	–	–	–	–	–	EC50 (read off the curve); function blocking assay (Example 4), RFU of plasmin substrate cleavage [3]: ~60 nM
B2	12	20	13	> 5e-06	3.3	35	34	~3	–	–	–	–	–	–	–	–	EC50 (read off the curve); function blocking assay (Example 4), RFU of plasmin substrate cleavage [7]: ~10 nM
B3	68	73	69	> 2e-06	8.1	82	84	~8	–	–	–	–	–	–	–	–	–
B4	2.4	30	24	> 5e-06	5.7	61	60	–	3.9	3.1	7.8	–	–	–	–	–	EC50 (read off the curve); function blocking assay (Example 4), RFU of plasmin substrate cleavage [12]: ~2 nM; EC50 (read off the curve); function blocking assay (Example 4), RFU of plasmin substrate cleavage; comparator curve [same curve in 8.4, D00008 8.6, 8.8, D00009 8.10, 8.12] [13]: ~2 nM
B5	–	–	–	> 1e-05	–	–	–	–	18	13	17	0.16	0.11	0.33	0.33	0.44	EC50 [14]: 0.22 nM
B6	–	–	–	> 1e-05	–	–	–	–	11	7.6	18	0.23	0.19	0.64	0.56	0.69	EC50 (read off the curve); function blocking assay (Example 4), RFU of plasmin substrate cleavage [13]: ~0.5 nM
